# doi:10.1101/134072
# Values joined by “and” are separate entries in the source; they are usually repeats but may differ in a detail not shown here. Equal entries are not always repeated.
# B1: TDP-43 N-terminal domain (TDP-43^NTD), residues 1-80, no tags, Q13148 1-80 (domain or fragment)
# chain: MSEYIRVTEDENDEPIEIPSEDDGTVLLSTVTAQFPGACGLRYRNPVSQCMRGVRLVEGILHAPDAGWGNLVYVVNYPKD
# How the values were obtained:
# [1] = molecular target: T1, TDP-43 N-terminal domain (TDP-43^NTD), residues 1-80, no tags, Q13148; experiment: AUC; conditions: remark: other sources report otherwise
# T1 chain: B1 chain
# [2] = molecular target: T1, TDP-43 N-terminal domain (TDP-43^NTD), …; experiment: SEC; conditions: remark: other sources report otherwise
binder,measurement,setting,value
B1,percent dimer at 2-5 μM,[1],30%
same,percent tetramer at 20 μM,[1],10%
same,stoichiometry N,[1],2 and 4
same,stoichiometry N,[2],2 and 4
